Article PMC4691890 (2015)

Biological target: horse CytC K87W (horse, UniProt P00004 1-105, K87W)
Experiment: ITC

- Ka: 1.24e+06 M⁻¹
B1: full-length human Apaf-1 (residues 1–1248) (natural protein)
chain: MDAKARNCLLQHREALEKDIKTSYIMDHMISDGFLTISEEEKVRNEPTQQQRAAMLIKMILKKDNDSYVSFYNALLHEGYKDLAALLHDGIPVVSSSSGKDSVSGITSYVRTVLCEGGVPQRPVVFVTRKKLVNAIQQKLSKLKGEPGWVTIHGMAGCGKSVLAAEAVRDHSLLEGCFPGGVHWVSVGKQDKSGLLMKLQNLCTRLDQDESFSQRLPLNIEEAKDRLRILMLRKHPRSLLILDDVWDSWVLKAFDSQCQILLTTRDKSVTDSVMGPKYVVPVESSLGKEKGLEILSLFVNMKKADLPEQAHSIIKECKGSPLVVSLIGALLRDFPNRWEYYLKQLQNKQFKRIRKSSSYDYEALDEAMSISVEMLREDIKDYYTDLSILQKDVKVPTKVLCILWDMETEEVEDILQEFVNKSLLFCDRNGKSFRYYLHDLQVDFLTEKNCSQLQDLHKKIITQFQRYHQPHTLSPDQEDCMYWYNFLAYHMASAKMHKELCALMFSLDWIKAKTELVGPAHLIHEFVEYRHILDEKDCAVSENFQEFLSLNGHLLGRQPFPNIVQLGLCEPETSEVYQQAKLQAKQEVDNGMLYLEWINKKNITNLSRLVVRPHTDAVYHACFSEDGQRIASCGADKTLQVFKAETGEKLLEIKAHEDEVLCCAFSTDDRFIATCSVDKKVKIWNSMTGELVHTYDEHSEQVNCCHFTNSSHHLLLATGSSDCFLKLWDLNQKECRNTMFGHTNSVNHCRFSPDDKLLASCSADGTLKLWDATSANERKSINVKQFFLNLEDPQEDMEVIVKCCSWSADGARIMVAAKNKIFLFDIHTSGLLGEIHTGHHSTIQYCDFSPQNHLAVVALSQYCVELWNTDSRSKVADCRGHLSWVHGVMFSPDGSSFLTSSDDQTIRLWETKKVCKNSAVMLKQEVDVVFQENEVMVLAVDHIRRLQLINGRTGQIDYLTEAQVSCCCLSPHLQYIAFGDENGAIEILELVNNRIFQSRFQHKKTVWHIQFTADEKTLISSSDDAEIQVWNWQLDKCIFLRGHQETVKDFRLLKNSRLLSWSFDGTVKVWNIITGNKEKDFVCHQGTVLSCDISHDATKFSSTSADKTAKIWSFDLLLPLHELRGHNGCVRCSAFSVDSTLLATGDDNGEIRIWNVSNGELLHLCAPLSEEGAATHGGWVTDLCFSPDGKMLISAGGYIKWWNVVTGESSQTFYTNGTNLKKIHVSPDFKTYVTVDNLGILYILQTLE
